Results taken from article PMC9098913, “In vitro reconstitution of Escherichia coli divisome activation” (Nature Communications, 2022).
Like-named read-outs stand apart in the source and are kept apart here.

What was measured:
[1] = test system: FtsZ; conditions: His-tagged FtsA
Method: Co-treadmilling of FtsA with FtsZ relies on the dynamic exchange of FtsA on the membrane. […] To investigate the respective contributions of membrane binding kinetics and FtsA self-interaction on the colocalization dynamics with FtsZ, we wanted to create variants of the two FtsA proteins that are permanently attached to the membrane. […] Accordingly, in these experiments the proteins only differ in their tendency to form oligomers.
To study colocalization of His-tagged variants of FtsA, 0.5–1 µM of Cy5 labelled His-tagged FtsAs were added to the chamber, incubated for 20 min and washed 6x with reaction buffer. […] To control the density of membrane-bound FtsA, SUVs without and with Tris-NTA lipids were mixed to obtain the respective Tris-NTA concentrations. To perform FRET/FRAP experiments, equimolar concentrations of Cy3 and Cy5 labelled His-tagged FtsAs (total 0.5–1 µM) or His-SUMO-Cys were added to a chamber and treated as above. […] FRAP experiments were performed as described before.
Treadmilling dynamics, were quantified using an automated image analysis protocol previously developed by our group. To visualize colocalization of the co-treadmilling FtsZ & FtsA filaments, we used dual-colour videos obtained at an acquisition rate of one frame per 2 s. The two channels were aligned using FIJI’s 3TP align plugin. Both channels were then subjected to the image subtraction protocol and colocalization was measured as described above.

[2] = Membrane off-binding rate (koff) of FtsA from FRAP
Excerpt: We could also use the data from these bleaching experiments to quantify the membrane-binding kinetics and diffusion of membrane-bound proteins by analysing the change of the fluorescence profile during recovery.
Equimolar concentrations of Cy3- and Cy5-labelled FtsA, supplemented with 20% unlabelled FtsA were used to study FRET and FRAP. Five pre-bleach frames were acquired, followed by acceptor photobleaching of a rectangular ROI with 40% 641 nm laser power and a dwell size of 1 µs/pixel, 75% overlapping lines. The recovery of the signal or the increase in donor intensity were measured with either two frames or one frame per second.
Bleaching the acceptor dye leads to an increase in the donor intensity, which can be used to quantify the Foerster Resonance energy transfer (FRET)[48]. FRET efficiency was quantified with E%=Ipost/Ipost+Ipre⋅100 , where Ipost is the intensity of the […] and Ipre is the […]. […] To extract the contribution of both processes, we adjusted a routine recently published by Gerganova et al.[33]. In short, the code provides the contribution of both modes of recovery by analysing the shape of the fluorescence recovery profile. […] Contribution of diffusion leads to a change of the slope of the outer borders of the bleached region (S4h right). Thus, by measuring the change of the slope of the border recovery, diffusion and simple on/off binding can be distinguished. We developed “FRAPdiff”, a graphical user interface, which uses the original fit routine by David Rutkowski. It can be used directly on.tiff movies with annotated bleach regions as ImageJ ROIs. In addition, we added optional bleach correction, user selectable projection axis (x or y), and optional mirroring of the recovery profiles, if bleaching was not symmetric. The original fit routine for estimating the recovery and diffusion dynamics can be found at https://github.com/davidmrutkowski/1DReflectingDiffusion. FRAPdiff is available at 10.5281/zenodo.6400639[49] under the GPLv3 open-source license.

B1: FtsA R286W (protein)
chain: MIKATDRKLVVGLEIGTAKVAALVGEVLPDGMVNIIGVGSCPSRGMDKGGVNDLESVVKCVQRAIDQAELMADCQISSVYLALSGKHISCQNEIGMVPISEEEVTQEDVENVVHTAKSVRVRDEHRVLHVIPQEYAIDYQEGIKNPVGLSGVRMQAKVHLITCHNDMAKNIVKAVERCGLKVDQLIFAGLASSYSVLTEDERELGVCVVDIGGGTMDIAVYTGGALRHTKVIPYAGNVVTSDIAYAFGTPPSDAEAIKVRHGCALGSIVGKDESVEVPSVGGRPPWSLQRQTLAEVIEPRYTELLNLVNEEILQLQEKLRQQGVKHHLAAGIVLTGGAAQIEGLAACAQRVFHTQVRIGAPLNITGLTDYAQEPYYSTAVGLLHYGKESHLNGEAEVEKRVTASVGSWIKRLNSWLRKEF
modifications: Cy3 or Cy5 at the N-terminus in the labelled form (labelled CLEPTGG peptide conjugated to the 5xGly tag by sortagging); unlabelled protein also used; left off: TwinStrep-SUMO, N-terminal, cleaved | 5x
- Differential PCC ([1]; 0.60% Tris NTA, Exp. 1 (statistical analysis)): 0.40
- Differential PCC ([1]; 0.60% Tris NTA, Exp. 2 (statistical analysis)): 0.46
- Differential PCC ([1]; 0.60% Tris NTA, Exp. 3 (statistical analysis)): 0.54
- Differential PCC, Mean ([1]; 0.60% Tris NTA, n = 2 (WT), 3 (R286W), sd 0.02, 0.057, p-value 0.67): 0.47
- Differential PCC ([1]; 0.80% Tris NTA, Exp. 1 (statistical analysis)): 0.57
- Differential PCC ([1]; 0.80% Tris NTA, Exp. 2 (statistical analysis)): 0.48
- Differential PCC ([1]; 0.80% Tris NTA, Exp. 3 (statistical analysis)): 0.66
- Differential PCC, Mean ([1]; 0.80% Tris NTA, n = 3, 3, sd 0.05 (WT), 0.0749 (R286W), p-value 0.13): 0.57
- Differential PCC ([1]; 1.00% Tris NTA, Exp. 1 (statistical analysis)): 0.60
- Differential PCC ([1]; 1.00% Tris NTA, Exp. 2 (statistical analysis)): 0.56
- Differential PCC ([1]; 1.00% Tris NTA, Exp. 3 (statistical analysis)): 0.51
- Differential PCC, Mean ([1]; 1.00% Tris NTA, n = 3, 3, sd 0.12 (WT), 0.0377 (R286W), p-value 5.89E-02): 0.56
- Differential PCC ([1]; 2.00% Tris NTA, Exp. 1 (statistical analysis)): 0.44
- Differential PCC ([1]; 2.00% Tris NTA, Exp. 2 (statistical analysis)): 0.34
- Differential PCC ([1]; 2.00% Tris NTA, Exp. 3 (statistical analysis)): 0.36
- Differential PCC, Mean ([1]; 2.00% Tris NTA, n = 3, 3, sd 0.0469 (WT), 0.04 (R286W), p-value 2.27E-03): 0.38
- Differential PCC ([1]; […] Tris NTA, Exp. 1 (statistical analysis)): 0.34
- Differential PCC ([1]; […] Tris NTA, Exp. 3 (statistical analysis)): 0.37
- Differential PCC, Mean ([1]; […] Tris NTA, n = 3, 3, sd 0.0371 (WT), 0.02 (R286W), p-value 5.70E-04): 0.36
- Off binding rate, mean ([2]; 0.1 µM FtsA + FtsN&Z): 0.0939 s
- Off binding rate, mean ([2]; 0.1 µM FtsA + FtsN): 0.062 s
- Off binding rate, mean ([2]; 0.1 µM FtsA + FtsZ): 0.204 s
- Off binding rate ([2]; 0.1µM FtsA alone, Mean, n=6): 0.3263
- Off binding rate, mean ([2]; 0.1 µM FtsA alone): 0.326 s
- Off binding rate ([2]; 0.1µM FtsA alone, replicate Exp.1): 3.18E-01
- Off binding rate ([2]; 0.1µM FtsA alone, replicate Exp.2): 1.79E-01
- Off binding rate ([2]; 0.1µM FtsA alone, replicate Exp.3): 4.12E-01
- Off binding rate ([2]; 0.1µM FtsA alone, replicate Exp.4): 4.03E-01
- Off binding rate ([2]; 0.1µM FtsA alone, replicate Exp.5): 3.20E-01
- Off binding rate ([2]; 0.1µM FtsA alone, replicate Exp.6): 3.25E-01
- Off binding rate ([2]; 0.1µM, + FtsN&Z, Mean, n=3): 0.0939
- Off binding rate ([2]; 0.1µM, + FtsN&Z, replicate Exp.1): 1.11E-01
- Off binding rate ([2]; 0.1µM, + FtsN&Z, replicate Exp.2): 5.81E-02
- Off binding rate ([2]; 0.1µM, + FtsN&Z, replicate Exp.3): 1.13E-01
- Off binding rate ([2]; 0.1µM, + FtsN, Mean, n=3): 0.0620
- Off binding rate ([2]; 0.1µM, + FtsN, replicate Exp.1): 5.84E-02
- Off binding rate ([2]; 0.1µM, + FtsN, replicate Exp.2): 3.36E-02
- Off binding rate ([2]; 0.1µM, + FtsN, replicate Exp.3): 9.39E-02
- Off binding rate ([2]; 0.1µM, + FtsZ, Mean, n=4): 0.2040
- Off binding rate ([2]; 0.1µM, + FtsZ, replicate Exp.1): 1.08E-01
- Off binding rate ([2]; 0.1µM, + FtsZ, replicate Exp.2): 3.38E-01
- Off binding rate ([2]; 0.1µM, + FtsZ, replicate Exp.3): 3.22E-01
- Off binding rate ([2]; 0.1µM, + FtsZ, replicate Exp.4): 4.74E-02
- Off binding rate, mean ([2]; 0.2 µM FtsA + FtsN&Z): 0.099 s
- Off binding rate, mean ([2]; 0.2 µM FtsA + FtsN): 0.171 s
- Off binding rate, mean ([2]; 0.2 µM FtsA + FtsZ): 0.227 s
- Off binding rate ([2]; 0.2µM FtsA alone, Mean, n=6): 0.2513
- Off binding rate, mean ([2]; 0.2 µM FtsA alone): 0.251 s
- Off binding rate ([2]; 0.2µM FtsA alone, replicate Exp.1): 2.65E-01
- Off binding rate ([2]; 0.2µM FtsA alone, replicate Exp.2): 3.55E-01
- Off binding rate ([2]; 0.2µM FtsA alone, replicate Exp.3): 3.00E-01
- Off binding rate ([2]; 0.2µM FtsA alone, replicate Exp.4): 1.69E-01
- Off binding rate ([2]; 0.2µM FtsA alone, replicate Exp.5): 2.80E-01
- Off binding rate ([2]; 0.2µM FtsA alone, replicate Exp.6): 1.38E-01
- Off binding rate ([2]; 0.2µM, + FtsN&Z, Mean, n=6): 0.0990
- Off binding rate ([2]; 0.2µM, + FtsN&Z, replicate Exp.1): 2.98E-02
- Off binding rate ([2]; 0.2µM, + FtsN&Z, replicate Exp.2): 2.05E-01
- Off binding rate ([2]; 0.2µM, + FtsN&Z, replicate Exp.3): 6.45E-02
- Off binding rate ([2]; 0.2µM, + FtsN&Z, replicate Exp.4): 4.84E-02
- Off binding rate ([2]; 0.2µM, + FtsN&Z, replicate Exp.5): 1.35E-01
- Off binding rate ([2]; 0.2µM, + FtsN&Z, replicate Exp.6): 1.11E-01
- Off binding rate ([2]; 0.2µM, + FtsN, Mean, n=4): 0.1710
- Off binding rate ([2]; 0.2µM, + FtsN, replicate Exp.1): 5.13E-02
- Off binding rate ([2]; 0.2µM, + FtsN, replicate Exp.2): 3.51E-01
- Off binding rate ([2]; 0.2µM, + FtsN, replicate Exp.3): 1.05E-01
- Off binding rate ([2]; 0.2µM, + FtsN, replicate Exp.4): 1.76E-01
- Off binding rate ([2]; 0.2µM, + FtsZ, Mean, n=6): 0.2270
- Off binding rate ([2]; 0.2µM, + FtsZ, replicate Exp.1): 2.24E-01
- Off binding rate ([2]; 0.2µM, + FtsZ, replicate Exp.2): 4.14E-01
- Off binding rate ([2]; 0.2µM, + FtsZ, replicate Exp.3): 9.28E-02
- Off binding rate ([2]; 0.2µM, + FtsZ, replicate Exp.4): 4.05E-01
- Off binding rate ([2]; 0.2µM, + FtsZ, replicate Exp.5): 1.38E-01
- Off binding rate ([2]; 0.2µM, + FtsZ, replicate Exp.6): 8.76E-02
- Off binding rate, mean ([2]; 0.4 µM FtsA + FtsN&Z): 0.101 s
- Off binding rate, mean ([2]; 0.4 µM FtsA + FtsN): 0.18 s
- Off binding rate, mean ([2]; 0.4 µM FtsA + FtsZ): 0.179 s
- Off binding rate ([2]; 0.4µM FtsA alone, Mean, n=9): 0.3738
- Off binding rate, mean ([2]; 0.4 µM FtsA alone): 0.374 s
- Off binding rate ([2]; 0.4µM FtsA alone, replicate Exp.1): 7.99E-01
- Off binding rate ([2]; 0.4µM FtsA alone, replicate Exp.2): 6.65E-01
- Off binding rate ([2]; 0.4µM FtsA alone, replicate Exp.3): 6.54E-01
- Off binding rate ([2]; 0.4µM FtsA alone, replicate Exp.4): 2.78E-01
- Off binding rate ([2]; 0.4µM FtsA alone, replicate Exp.5): 1.57E-01
- Off binding rate ([2]; 0.4µM FtsA alone, replicate Exp.6): 1.25E-01
